To fix the notation:
B1: Nuclear factor NF-kappa-B p105 subunit (Homo sapiens), P19838 (parent)
chain: MAEDDPYLGRPEQMFHLDPSLTHTIFNPEVFQPQMALPTDGPYLQILEQPKQRGFRFRYVCEGPSHGGLPGASSEKNKKSYPQVKICNYVGPAKVIVQLVTNGKNIHLHAHSLVGKHCEDGICTVTAGPKDMVVGFANLGILHVTKKKVFETLEARMTEACIRGYNPGLLVHPDLAYLQAEGGGDRQLGDREKELIRQAALQQTKEMDLSVVRLMFTAFLPDSTGSFTRRLEPVVSDAIYDSKAPNASNLKIVRMDRTAGCVTGGEEIYLLCDKVQKDDIQIRFYEEEENGGVWEGFGDFSPTDVHRQFAIVFKTPKYKDINITKPASVFVQLRRKSDLETSEPKPFLYYPEIKDKEEVQRKRQKLMPNFSDSFGGGSGAGAGGGGMFGSGGGGGGTGSTGPGYSFPHYGFPTYGGITFHPGTTKSNAGMKHGTMDTESKKDPEGCDKSDDKNTVNLFGKVIETTEQDQEPSEATVGNGEVTLTYATGTKEESAGVQDNLFLEKAMQLAKRHANALFDYAVTGDVKMLLAVQRHLTAVQDENGDSVLHLAIIHLHSQLVRDLLEVTSGLISDDIINMRNDLYQTPLHLAVITKQEDVVEDLLRAGADLSLLDRLGNSVLHLAAKEGHDKVLSILLKHKKAALLLDHPNGDGLNAIHLAMMSNSLPCLLLLVAAGADVNAQEQKSGRTALHLAVEHDNISLAGCLLLEGDAHVDSTTYDGTTPLHIAAGRGSTRLAALLKAAGADPLVENFEPLYDLDDSWENAGEDEGVVPGTTPLDMATSWQVFDILNGKPYEPEFTSDDLLAQGDMKQLAEDVKLQLYKLLEIPDPDKNWATLAQKLGLGILNNAFRLSPAPSKTLMDNYEVSGGTVRELVEALRQMGYTEAIEVIQAASSPVKTTSQAHSLPLSPASTRQQIDELRDSDSVCDSGVETSFRKLSFTESLTSGASLLTLNKMPHDYGQEGPLEGKI

The text below walks through data of IntAct's records for PubMed 12832462.

The variants in the assay derive from B1. The note with it: with m3k8_human MAP3K8, P41279.
m3k8_human MAP3K8, P41279, sequence (P41279 whole entry): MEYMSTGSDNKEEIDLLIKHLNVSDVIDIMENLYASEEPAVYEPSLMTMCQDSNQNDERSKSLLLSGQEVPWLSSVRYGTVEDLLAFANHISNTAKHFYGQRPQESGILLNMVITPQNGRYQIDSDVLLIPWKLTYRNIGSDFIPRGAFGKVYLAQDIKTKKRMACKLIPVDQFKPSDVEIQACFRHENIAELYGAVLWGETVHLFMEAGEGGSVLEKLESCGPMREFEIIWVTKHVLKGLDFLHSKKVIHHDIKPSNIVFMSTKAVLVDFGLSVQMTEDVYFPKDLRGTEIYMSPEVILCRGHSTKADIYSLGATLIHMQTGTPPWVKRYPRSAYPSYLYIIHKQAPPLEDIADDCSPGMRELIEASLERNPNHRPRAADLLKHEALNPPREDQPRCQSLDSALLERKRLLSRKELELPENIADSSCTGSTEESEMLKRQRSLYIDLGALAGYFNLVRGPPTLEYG
On to L841A, for which the “effect of a mutation on the interaction” value is reported as “decreasing interaction”.
